Earlier results in article PMC8892085.

Biological target: TLR4 (Homo sapiens) (UniProt O00206)
Sequence (O00206 24-839): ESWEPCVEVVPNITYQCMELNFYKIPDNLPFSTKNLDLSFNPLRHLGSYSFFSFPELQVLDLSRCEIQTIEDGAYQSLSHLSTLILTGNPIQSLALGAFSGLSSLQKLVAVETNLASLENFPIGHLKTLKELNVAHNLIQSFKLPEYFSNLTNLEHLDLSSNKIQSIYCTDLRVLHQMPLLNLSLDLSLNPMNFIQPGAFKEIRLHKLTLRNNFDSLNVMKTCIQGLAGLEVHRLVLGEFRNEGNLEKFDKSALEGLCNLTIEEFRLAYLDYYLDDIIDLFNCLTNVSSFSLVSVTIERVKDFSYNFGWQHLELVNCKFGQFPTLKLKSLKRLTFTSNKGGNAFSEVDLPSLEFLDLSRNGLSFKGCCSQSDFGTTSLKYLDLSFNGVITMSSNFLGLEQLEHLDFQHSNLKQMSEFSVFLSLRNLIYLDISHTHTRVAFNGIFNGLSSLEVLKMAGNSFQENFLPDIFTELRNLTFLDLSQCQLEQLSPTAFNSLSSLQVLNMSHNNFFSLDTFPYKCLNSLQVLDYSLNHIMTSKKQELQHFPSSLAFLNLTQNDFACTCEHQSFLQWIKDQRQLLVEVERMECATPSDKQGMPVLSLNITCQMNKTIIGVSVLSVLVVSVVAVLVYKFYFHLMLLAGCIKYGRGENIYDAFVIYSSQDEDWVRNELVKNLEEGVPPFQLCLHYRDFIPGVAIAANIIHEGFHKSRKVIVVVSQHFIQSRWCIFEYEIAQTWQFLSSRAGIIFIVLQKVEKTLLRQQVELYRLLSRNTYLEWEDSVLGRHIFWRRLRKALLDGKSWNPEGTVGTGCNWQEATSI

HMGB1, sequence (P09429 whole entry): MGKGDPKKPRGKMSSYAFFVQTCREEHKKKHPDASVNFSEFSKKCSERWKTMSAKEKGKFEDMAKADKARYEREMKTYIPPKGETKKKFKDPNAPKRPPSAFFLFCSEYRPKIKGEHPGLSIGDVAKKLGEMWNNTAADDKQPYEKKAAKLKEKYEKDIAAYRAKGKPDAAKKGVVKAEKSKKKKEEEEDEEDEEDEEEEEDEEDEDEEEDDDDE

Kd: 600 nM
Substance: HMGB1 (from UniProt P09429)
